Reference: publication PMC12737678

Columns and labels:
[1] = target: oxytocin (UniProt P01178); experiment: small-molecule microarray
[2] = target: SARS-CoV-2 papain-like protease (PLpro) (SARS-CoV-2)

SARS-CoV-2 main protease (Mpro) (enzyme)
SNR (signal-to-noise ratio on the microarray) [1]: 5.53

SARS-CoV-2 papain-like protease (PLpro) (enzyme)
SNR (signal-to-noise ratio on the microarray) [1]: 6.52

oxytocin (from UniProt P01178 20-28) (peptide)
IC50 of inhibition of PLpro enzymatic activity (dose-response curve, Figure 5C) [2]: 4.92 µM
